Source: the supplement of paper PMC10126150
± gives the standard deviation of the averaged measurements.

System: ATP
Assay: switch fluorescence ratio, 500 uM ATP over buffer (Cy3 cluster intensity, sum of 5 cycles each) (fold (ratio)); higher = stronger signal-on switching upon ATP binding; sequences stand for … in TCGTCGGCAGCGTCAGATGTGTATAAGAGACAGTTTTTTTTTTTTTTTTTTTTTTTTT…TC
Details: aptamer strand: ATP DNA aptamer (quencher-CACCTGGGGGAGTATTGCGGAGGAAGG + anchor), 100 nM annealed; ATP concentration: 500 uM
How it was run: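 Exposure to 500 uM ATP lasted 15 min at 22 °C before imaging, and a selection-buffer image was taken beforehand, for Cy3-labelled switching-strand clusters on a modified Illumina MiSeq flow-cell annealed to 100 nM quencher-labelled ATP aptamer. Five buffer/ATP cycles were run with NaOH stripping and re-annealing between them. The fluorescence ratio per cluster is summed target-cycle over summed buffer-cycle Cy3 intensity, averaged per switch-domain sequence. Clusters outside 100-1000 RFU were excluded.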

Row | Sequence | switch fluorescence ratio
1 | ACCGGGTGTA | 1.3 ± 0.086
2 | GCTTCAAGTC | 0.978 ± 0.018
3 | TAGGGTGGGA | 0.99 ± 0.025
4 | GGTGGTTGGG | 1.01 ± 0.038
5 | AGAAGGGCGG | 0.99 ± 0.037
6 | CGAACGGATT | 1.06 ± 0.054
7 | CTTAAATATG | 1 ± 0.012
8 | GCAGGAGTTG | 0.978 ± 0.087
9 | TGGCTTGGCG | 1.01 ± 0.072
10 | AAAATGTAAG | 1.011 ± 0.0057
11 | AACGGGGGA | 0.9916 ± 0.0024
12 | TTGTTTGTGA | 0.992 ± 0.011
13 | TCGAATTTGT | 0.99 ± 0.03
14 | CATGAGATTG | 0.971 ± 0.029
15 | CTGGTGTGGA | 1.034 ± 0.0058
16 | ATTGGGTTCT | 0.991 ± 0.057
17 | AATCTTTGTG | 0.976 ± 0.033
18 | TCTAAGCTGG | 0.988 ± 0.014
19 | GGGGGAGTAC | 1.025 ± 0.0084
20 | TGTTGCGCCG | 0.929 ± 0.081
21 | TAATTCCGGG | 1.01 ± 0.013
22 | CCTAAAGTTT | 0.983 ± 0.014
23 | GGGTCAGGTT | 1.01 ± 0.029

Row | Sequence | switch fluorescence ratio
24 | GAAGGGGCGA | 0.972 ± 0.018
25 | GTGATATGAG | 1.01 ± 0.036
26 | CAATGCGTAT | 1.01 ± 0.07
27 | TGAGGGAGGT | 0.985 ± 0.03
28 | CGGTCCGGCG | 1.012 ± 0.0011
29 | CTTTATTGGG | 0.972 ± 0.02
30 | TAGTTCGTTT | 0.998 ± 0.016
31 | GGATGCAAAG | 1.01 ± 0.013
32 | ATTATTCGGA | 1.008 ± 0.0027
33 | TTCACAGCCA | 1.09 ± 0.043
34 | GGGAAGGTAG | 0.995 ± 0.058
35 | ATTTGGGTGA | 1.03 ± 0.047
36 | TGGGGATATG | 0.997 ± 0.019
37 | TTTTTGAGTT | 0.977 ± 0.032
38 | GGTACGGTAA | 1.11 ± 0.038
39 | GGCACGAGGA | 1.04 ± 0.017
40 | GGTTTTTATT | 0.992 ± 0.0092
41 | TGTGTCTTTT | 1.01 ± 0.047
42 | TTATACTGAA | 1.05 ± 0.021
43 | GATACTGTGA | 0.995 ± 0.023
44 | GGTGTTAGAC | 0.976 ± 0.029
45 | ACTGTACGGC | 1.46 ± 0.016
46 | ATTCGGACGG | 1.026 ± 0.0055

Row | Sequence | switch fluorescence ratio
47 | CGTTGCACCT | 0.952 ± 0.051
48 | GAATGAAGAA | 0.9989 ± 0.0081
49 | AAATGCGGCC | 1 ± 0.067
50 | GAGGAATGAG | 0.9878 ± 0.005
51 | AATATATCCG | 1.03 ± 0.02
52 | CAGGTTTTTT | 0.989 ± 0.019
53 | GCTACCCACT | 1.46 ± 0.033
54 | TGGGAGGTTC | 1.03 ± 0.02
55 | CATTCAGTTT | 0.949 ± 0.021
56 | ACTGAAAAAG | 0.987 ± 0.019
57 | ATAATTGAGC | 1.04 ± 0.027
58 | AATTAAGGAT | 0.975 ± 0.032
59 | ATGGATAAGC | 0.997 ± 0.011
60 | ACGGAGGATT | 1.04 ± 0.04
61 | AACGAAAGGC | 1.19 ± 0.012
62 | ACATAATGCC | 0.933 ± 0.047
63 | GAGGCTAGTG | 0.988 ± 0.0092
64 | AATGTTTTGA | 0.995 ± 0.016
65 | AACTGGGGC | 0.959 ± 0.062
66 | GTTGTTTGTT | 0.978 ± 0.015
67 | ACATTTTGCG | 0.99926 ± 0.00068
68 | GATGCGAGGT | 0.952 ± 0.02
69 | CACCCTTTTC | 1.02 ± 0.024

Row | Sequence | switch fluorescence ratio
70 | TCCGAGGGTT | 1.214 ± 0.011
71 | AATAACGAAG | 1.04 ± 0.045
72 | GTTAGTGGCT | 0.9906 ± 0.0034
73 | TATATTCGCT | 0.988 ± 0.012
74 | GTTGCGAATT | 0.971 ± 0.038
75 | GCGCATTAGC | 1.3 ± 0.061
76 | CCTATTACA | 1.03 ± 0.026
77 | ACCAACTCAA | 1.18 ± 0.037
78 | CTATAGAAAT | 0.9991 ± 0.0091
79 | TTGGCGCGGC | 1.1 ± 0.063
80 | AATTGTGCCT | 1.08 ± 0.055
81 | TGCTGAAATG | 1.03 ± 0.07
82 | ATGGTGTGGG | 1.03 ± 0.021
83 | GTAGGACTTG | 0.953 ± 0.025
84 | CATGTCATTG | 1.01 ± 0.015
85 | CAGTCATATT | 1.02 ± 0.034
86 | TGGGGGCTAG | 0.997 ± 0.037
87 | ATATCGGCAT | 1.01 ± 0.035
88 | TTCTTAGCAC | 1.58 ± 0.17
89 | CATGTCGTTT | 1 ± 0.017
90 | ACCGCTCAGG | 1.022 ± 0.0093
91 | CTTGTATTAG | 1.01 ± 0.012
92 | TGGGCTAGAT | 0.998 ± 0.053

Row | Sequence | switch fluorescence ratio
93 | CGTCCTGGCT | 1.02 ± 0.07
94 | GTGGAAGCTT | 1.01 ± 0.041
95 | AAAATGCGGG | 1.01 ± 0.036
96 | TAGGTAAGGG | 0.99 ± 0.026
97 | GGGTTGAAGT | 0.985 ± 0.008
98 | ATTTGGGTGG | 0.987 ± 0.041
99 | ATGAAGGGAT | 0.9969 ± 0.00076
100 | CTTAAAGGTC | 1.02 ± 0.052
101 | GCGTTTGGAC | 1.056 ± 0.01
102 | GGTCGCTGCG | 0.9956 ± 0.0069
103 | TGAAGTGAAT | 1.01 ± 0.011
104 | ATGTTGTCTG | 1 ± 0.035
105 | CAGTCTATCG | 1.01 ± 0.021
106 | CGTCAGCACT | 1.79 ± 0.04
107 | GTGTGTTTGT | 0.955 ± 0.038
108 | TATTAGTGAA | 1.01 ± 0.013
109 | GCGTTGGGGG | 0.995 ± 0.037
110 | GCAGCTGGGT | 1.064 ± 0.0034
111 | AGAACGGTAT | 1.048 ± 0.0034
112 | AGGTGAAAAG | 1.01 ± 0.02
113 | ACGTTGAATG | 1.01 ± 0.011
114 | CTAAGGGAAG | 0.9781 ± 0.00035
115 | ATGTAGACGG | 0.984 ± 0.011

Row | Sequence | switch fluorescence ratio
116 | TGAATGATCG | 1.07 ± 0.032
117 | TCTTTACTAC | 1.08 ± 0.081
118 | GTTAGGTGGC | 0.931 ± 0.021
119 | ATATGTTTTT | 0.996 ± 0.018
120 | TGAATATTAA | 0.985 ± 0.025
121 | TTGAGGTCTT | 0.964 ± 0.024
122 | CAGCAGGGGC | 1.11 ± 0.024
123 | GGTAATGGTG | 1.0095 ± 0.00021
124 | AAATTCCTAC | 1.01 ± 0.015
125 | CGAGCTCTCG | 1.002 ± 0.0075
126 | TTAAAGCACG | 1.07 ± 0.023
127 | TTTGGTCCTT | 1.029 ± 0.0088
128 | GGGGGGGACT | 1 ± 0.034
129 | GCTTCGGCGC | 1.03 ± 0.046
130 | TCTATCTTTA | 0.996 ± 0.019
131 | GAAGGGGGG | 1.001 ± 0.0094
132 | ATGTAGATAT | 1.01 ± 0.021
133 | AGGAATGTTT | 0.985 ± 0.0099
134 | AATATTTTGG | 1.013 ± 0.0037
135 | AAGGAAGGGG | 1.14 ± 0.2
136 | GCATATAAAC | 1.2 ± 0.17
137 | TGACGGCGGA | 1.02 ± 0.023
138 | GGGCTATCAT | 0.965 ± 0.012

Row | Sequence | switch fluorescence ratio
139 | TTGGATTTAT | 1.011 ± 0.0093
140 | TTTTTAGTGC | 1 ± 0.044
141 | TACGTATAGG | 1.098 ± 0.0028
142 | GATGGGCACC | 1.01 ± 0.012
143 | CCTAAAAGTT | 1.01 ± 0.05
144 | CATGGGAGAG | 1.05 ± 0.026
145 | TACTAGAACT | 1.03 ± 0.035
146 | TGTGGCAAGA | 1.14 ± 0.14
147 | AATTGAAACA | 0.9731 ± 0.0068
148 | CTCTTCTGGT | 0.971 ± 0.04
149 | TTGGGCGGGG | 1.03 ± 0.043
150 | CAATTCATGG | 0.992 ± 0.073
151 | TTAGGTTGCT | 1.1 ± 0.14
152 | TTACTAGGCC | 1.01 ± 0.034
153 | CTGGGTTGGC | 1.0029 ± 0.00048
154 | CACTAGAACC | 1.0319 ± 8.9e-05
155 | GCGGTCAAAC | 1.06 ± 0.036
156 | TATATTTGTC | 1.04 ± 0.032
157 | TTATCGTGCG | 0.9661 ± 0.0079
